Assay results from PMC7456326.
Where two headings read alike, the source gives them in different places. Each block holds one substance with its values, some of them ahead of it.

Tests used:
[1] = target: Coh (lacking ELP linker and ddFLN4 domains), ITC construct (R. champanellensis); test: ITC; 126 uM XMod-Doc injected (27 x 10 uL) into 16.1 uM Coh in the cell; 25 °C; TBS-Ca buffer (25 mM Tris, 72 mM NaCl, 1 mM CaCl2, pH 7.2)
[2] = target: Coh-ddFLN4-ELP-HIS-ybbr, AFM construct (R. champanellensis); test: AFM single-molecule force spectroscopy (AFM-SMFS); Coh construct covalently on the cantilever tip by its C-terminal ybbR tag, XMod-Doc construct covalently on the cover glass by its N-terminal ybbR tag; 200 ms dwell; constant pulling speed 100, 400, 1600, 6400 nm/s (mutants at 400 nm/s); TBS-Ca buffer; k0 from Bell-Evans or Dudko-Hummer-Szabo fits
[3] = target: Coh-ddFLN4-ELP-HIS-ybbr, AFM construct (R. champanellensis); test: as above; remark: listed apart in the source
[4] = target: Avi-Coh (E154C)-HIS labelled with maleimide-Cy3b, smFRET construct (R. champanellensis); test: FRET or BRET; single-molecule FRET in solution on a confocal microscope; labelled Coh (Cy3b) and XMod-Doc (AF647) mixed 1:1 at 1 uM, 1 min, diluted to 200 pM; 50 mM Tris pH 8, 100 mM NaCl, 1 mM CaCl2, Trolox, 1% glucose

Kd [1]: 1 nM
stoichiometry N [1]: 1
Substance: XMod-Doc protein (lacking ELP linker and ddFLN4 domains), ITC construct (domain or fragment)

k0 (BE), pathway 1, high force rupture (XMod intact) [2]: 4.7e-08 s⁻¹
k0 (BE), pathway 2, low force rupture after XMod unfold [2]: 0.000743 s⁻¹
k0 (BE), pathway 3, low force rupture (XMod intact) [2]: 2.79e-05 s⁻¹
k0 (DHS, υ = 0.5), pathway 1, high force rupture (XMod intact) [2]: 9.39e-05 s⁻¹
k0 (DHS, υ = 0.5), pathway 2, low force rupture after XMod unfold [2]: 0.0152 s⁻¹
k0 (DHS, υ = 0.5), pathway 3, low force rupture (XMod intact) [2]: 0.831 s⁻¹
k0 (DHS, υ = 2/3), pathway 1, high force rupture (XMod intact) [2]: 0.000157 s⁻¹
k0 (DHS, υ = 2/3), pathway 2, low force rupture after XMod unfold [2]: 0.101 s⁻¹
k0 (DHS, υ = 2/3), pathway 3, low force rupture (XMod intact) [2]: 1.08 s⁻¹
percentage of curves in pathway 3 (binding mode B), 400 nm/s [2]: 19%
percentage of curves in pathway 3 (binding mode B), all pulling speeds [2]: 17 to 22%
rupture force, pathway 1 (XMod intact) [2]: 500 pN
rupture force, pathway 2 (after XMod unfolding) [2]: 200 pN
rupture force, pathway 3 (XMod intact) [2]: 200 pN
rupture force, pathway 1 (XMod intact) [3]: 500 to 600 pN
Substance: ybbr-ELP-ddFLN4-XMod-Doc-HIS (wild type), AFM construct (domain or fragment)

mean FRET efficiency, binding mode A [4]: 0.71
mean FRET efficiency, binding mode B [4]: 0.34
Substance: ybbr-XMod-Doc (WT, S199AzF)-HIS labelled with DBCO-AF647, smFRET construct (domain or fragment)
